These results are taken from US20150197564A1 (Regeneron, published 2015).

Assay [1] deals with T1, MfANGPTL3(17-170)-mmH (Macaca fascicularis).
T1 construct: also called N-terminal coiled-coil domain of ANGPTL3 from Macaca fascicularis with myc-myc-hexahistidine tag; Monkey ANGPTL3 (17-170)-mmH
T1 chain: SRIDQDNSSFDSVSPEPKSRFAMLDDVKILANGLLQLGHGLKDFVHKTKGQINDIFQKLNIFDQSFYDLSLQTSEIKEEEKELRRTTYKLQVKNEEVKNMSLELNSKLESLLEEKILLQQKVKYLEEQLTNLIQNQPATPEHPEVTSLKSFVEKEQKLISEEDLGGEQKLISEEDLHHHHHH
Briefly: SPR Biacore, antigen captured, 37C, pH 7.2, PBSP. Here is the method:
(§1) All kinetic binding experiments were performed at 25° C. or 37° C. on a BIACORE™ T200 label-free molecular interaction instrument (GE Healthcare) using a CM5 sensor chip. Briefly, an antigen capture surface was generated by covalently coupling either an anti-mouse IgG-specific antibody (anti-mFc; GE Healthcare; catalog #BR-1008-38) or an anti-pentahistidine-specific antibody (Qiagen; catalog #34660) to the surface of a CM5 sensor chip using a standard amine coupling method.
(In SPR one partner is held on a chip, and binding of the other changes the refractive index at the surface.)

Assay [2] deals with T2, hANGPTL3(17-170)-His (human, UniProt Q9Y5C1 17-170).
T2 construct: also called N-terminal coiled-coil domain of hANGPTL3 with a C-terminal hexahistidine tag; Human ANGPTL3 (17-170)-His
T2 sequence: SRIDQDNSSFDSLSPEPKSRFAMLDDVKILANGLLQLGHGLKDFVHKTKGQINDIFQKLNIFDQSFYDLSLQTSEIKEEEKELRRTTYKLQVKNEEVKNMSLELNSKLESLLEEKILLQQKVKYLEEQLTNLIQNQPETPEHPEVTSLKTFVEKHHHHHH
As to the kind of experiment: SPR Biacore, antigen captured, 37C, pH 7.2, PBSP. Here is the method: as §1

Assay [3] has as its target T3, hANGPTL3(17-460)-His (human, UniProt Q9Y5C1 17-460).
T3 construct: Bought protein (R&D Systems); also called full-length mature human ANGPTL3 with a C-terminal decahistidine tag; Human ANGPTL3 (17-460)-His
T3 sequence: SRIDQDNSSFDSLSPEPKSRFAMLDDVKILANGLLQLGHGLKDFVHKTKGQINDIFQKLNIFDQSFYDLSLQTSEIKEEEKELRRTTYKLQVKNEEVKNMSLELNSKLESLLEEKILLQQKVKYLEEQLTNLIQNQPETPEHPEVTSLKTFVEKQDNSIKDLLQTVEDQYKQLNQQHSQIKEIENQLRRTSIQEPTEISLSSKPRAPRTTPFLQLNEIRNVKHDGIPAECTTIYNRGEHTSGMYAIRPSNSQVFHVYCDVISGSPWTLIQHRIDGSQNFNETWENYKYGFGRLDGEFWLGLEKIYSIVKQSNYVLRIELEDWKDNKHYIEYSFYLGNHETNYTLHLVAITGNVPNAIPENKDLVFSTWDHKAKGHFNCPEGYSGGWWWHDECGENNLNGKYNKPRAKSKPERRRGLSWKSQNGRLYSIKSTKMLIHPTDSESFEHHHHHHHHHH
As to the kind of experiment: SPR Biacore, antigen captured, 37C, pH 7.2, PBSP. Here is the method:
as §1

Assay [4] concerns the target T4, mANGPTL3(17-240)-His (Mus musculus, UniProt Q9R182 17-240).
T4 sequence: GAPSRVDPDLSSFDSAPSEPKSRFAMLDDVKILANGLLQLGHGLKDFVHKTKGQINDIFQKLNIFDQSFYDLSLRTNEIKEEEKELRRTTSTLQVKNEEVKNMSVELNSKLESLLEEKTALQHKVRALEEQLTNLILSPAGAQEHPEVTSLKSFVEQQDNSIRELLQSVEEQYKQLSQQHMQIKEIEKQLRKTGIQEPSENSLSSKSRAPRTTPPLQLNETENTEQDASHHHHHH
As to the kind of experiment: cell-based or functional assay.

The target of assay [5] is T1, MfANGPTL3(17-170)-mmH. As to the kind of experiment: cell-based or functional assay.
For the next assay, the target named is T5, mANGPTL3(17-455)-His (Mus musculus, UniProt Q9R182 17-455).
T5 sequence: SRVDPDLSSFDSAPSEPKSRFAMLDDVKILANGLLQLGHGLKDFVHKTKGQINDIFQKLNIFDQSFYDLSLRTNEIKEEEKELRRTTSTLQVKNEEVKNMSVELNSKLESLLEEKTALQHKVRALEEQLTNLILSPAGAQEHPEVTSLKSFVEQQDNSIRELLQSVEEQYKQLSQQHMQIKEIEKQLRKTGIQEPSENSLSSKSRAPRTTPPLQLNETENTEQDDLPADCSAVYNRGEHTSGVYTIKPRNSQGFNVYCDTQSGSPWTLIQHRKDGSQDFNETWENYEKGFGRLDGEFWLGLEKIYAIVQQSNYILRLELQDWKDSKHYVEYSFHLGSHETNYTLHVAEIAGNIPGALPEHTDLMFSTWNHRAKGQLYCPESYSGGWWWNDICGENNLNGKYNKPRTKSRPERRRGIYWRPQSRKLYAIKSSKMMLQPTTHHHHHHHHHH
Briefly: cell-based or functional assay.

Assay [6] deals with T2, hANGPTL3(17-170)-His. Briefly: cell-based or functional assay.
Assay [7] deals with T3, hANGPTL3(17-460)-His. As to the kind of experiment: cell-based or functional assay.
The target in assay [8] is T4, mANGPTL3(17-240)-His. Briefly: cell-based or functional assay. The source holds these as a separate data set.
Another assay addresses T6, hANGPTL3(17-169)-mFc (human).
T6 chain: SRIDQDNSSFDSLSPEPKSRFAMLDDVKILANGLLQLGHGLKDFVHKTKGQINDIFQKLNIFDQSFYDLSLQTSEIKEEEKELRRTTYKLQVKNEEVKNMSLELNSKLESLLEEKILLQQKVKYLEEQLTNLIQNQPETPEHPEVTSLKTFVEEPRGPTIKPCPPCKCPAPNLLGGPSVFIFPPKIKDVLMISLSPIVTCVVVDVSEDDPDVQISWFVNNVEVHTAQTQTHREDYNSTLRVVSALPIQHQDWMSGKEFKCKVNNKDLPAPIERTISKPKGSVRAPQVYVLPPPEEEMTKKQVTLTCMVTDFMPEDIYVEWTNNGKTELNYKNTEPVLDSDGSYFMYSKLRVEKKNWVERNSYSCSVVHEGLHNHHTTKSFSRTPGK
Briefly: cell-based or functional assay.

B1: H4H1276S (antibody, IgG4, V domains shown)
VH: EVQLVESGGGVIQPGGSLRLSCAASGFTFDDYAMNWVRQGPGKGLEWVSAISGDGGSTYYADSVKGRFTISRDNSKNSLYLQMNSLRAEDTAFFYCAKDLRNTIFGVVIPDAFDIWGQGTMVTVSS
VL: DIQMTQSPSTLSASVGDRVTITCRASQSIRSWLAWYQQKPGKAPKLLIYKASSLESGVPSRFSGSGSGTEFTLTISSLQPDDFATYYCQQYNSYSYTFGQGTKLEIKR
On to B1, for which the Kd – broadly, the free concentration of one partner at which half of the binding sites on the other are occupied at equilibrium, for simple one-to-one binding – in the assay with MfANGPTL3(17-170)-mmH [1] came out at 0.7 nM; in the assay with hANGPTL3(17-170)-His [2] it was 1.74 nM; with hANGPTL3(17-460)-His [3] it was 1.76 nM. The values for the koff in the assay with MfANGPTL3(17-170)-mmH [1], in the assay with hANGPTL3(17-170)-His [2] and in the assay with hANGPTL3(17-460)-His [3] were 0.00136 s⁻¹, 0.00273 s⁻¹ and 0.00118 s⁻¹, respectively. For the same molecule, the kon (as a rule, the rate constant with which the complex forms) in the assay with MfANGPTL3(17-170)-mmH [1] was found to be 1.94e+06 M⁻¹ s⁻¹; with hANGPTL3(17-170)-His [2], 1.57e+06 M⁻¹ s⁻¹; in the assay with hANGPTL3(17-460)-His [3], 667000 M⁻¹ s⁻¹. Besides, the t1/2 with MfANGPTL3(17-170)-mmH [1] was determined as 8.5 min; with hANGPTL3(17-170)-His [2], 4.2 min; with hANGPTL3(17-460)-His [3], 9.8 min. Further, the “IC50, LPL bioassay, 500 nM constant mANGPTL3(17-240)-His” value with mANGPTL3(17-240)-His [4] was found to be 64 nM. The “IC50 (nM), LPL bioassay, 500 nM constant ANGPTL3” value with MfANGPTL3(17-170)-mmH [5] stood at 10 nM; in the assay with mANGPTL3(17-240)-His [8], 31 nM. The “IC50 (nM), LPL bioassay, 80 nM constant ANGPTL3” value in the assay with mANGPTL3(17-455)-His came to 14 nM; with hANGPTL3(17-460)-His [7], 9.6 nM; in the assay with hANGPTL3(17-169)-mFc, 21 nM. Further, the “IC50 (nM), LPL bioassay, 100 nM constant ANGPTL3” value with hANGPTL3(17-170)-His [6] was 2.9 nM.
